Measured values: PMC3052529
“And” between values parts separate entries of the source, which are not always exact repeats. Identical values can stand only once. Like-named read-outs stand apart in the source and are kept apart here.

How the values were obtained:
[1] = molecular target: Flag-core106 (hepatitis C virus (strain not stated)); assay: AlphaScreen or HTRF
[2] = molecular target: Flag-core169 (hepatitis C virus H77 genotype 1a); assay: AlphaScreen or HTRF
[3] = molecular target: Flag-core106 (hepatitis C virus (strain not stated)); assay: AlphaScreen or HTRF; remark: listed apart in the source
[4] = molecular target: HCV core106 (first N-terminal 106 residues of HCV core protein) (hepatitis C virus (strain not stated)); assay: cross-linking
[5] = molecular target: HCV core169 (first 169 residues of HCV core protein, domains D1+D2) (hepatitis C virus H77 genotype 1a); assay: cross-linking

With “HCV core106 (first N-terminal 106 residues of HCV core protein) (domain or fragment)” the IC50 [1] was 220 nM, the IC50 [2] was 870 nM and the IC50 [3] was 344 nM. The stoichiometry N [4] was 2.
For “HCV core169 (first 169 residues of HCV core protein, domains D1+D2) (domain or fragment)”, the stoichiometry N [5] was 2 and 3.
